Patent publication US20210196823A1, “Methods of Treating Metabolic Disease” (Pfizer Inc., priority 2018, published 2021)

What was measured:
Huh7 cells = experiment: Activity of erythroferrone domains and subunits in Huh7 cells (qRT-PCR); assay type: cell-based; conditions: FIG. 8A
Description: FIG. 6. The C1q domain is not required for erythroferrone activity: (FIG. 6A) Huh7 cells were treated for 24 h with full-length or C1q domain of human erythroferrone (10 μg/ml). (FIG. 6B) Huh7 cells were treated for 24 h with adipoferrone (construct containing N-terminal domain of adiponectin and C1q domain of erythroferrone) or C1q trimer (Tri-C1q) derived from mouse erythroferrone at 10 μg/ml. Gene expression measured by qRT-PCR. Data represents mean+standard deviation (n=3). ***p<0.001; ****p<0.0001.
FIG. 8. Erythroferrone subunits designed based on predicted patterns of furin cleavage differ in their ability to suppress hepcidin: (FIG. 8A) mono-Fc-huERFE A4 construct suppresses hepcidin expression, (FIG. 8B) Huh7 cells were treated for 24 h with human erythroferrone subunits that were designed to represent all the potential Erfe subunits that could be formed assuming activity at both in silico-predicted furin cleavage sites. (see FIG. 7A). Gene expression measured by qRT-PCR. Data represents mean+standard deviation (n=3). ***p<0.001; ****p<0.0001.
Erythroferrone is a member of the C1q/TNF-related protein (CTRP) family and comprises a structure composed of a signal peptide, an N-terminal, a collagen-like domain, and a globular C terminal domain homologous to complement protein 1q (C1q). […]

furin = furin (Homo sapiens, UniProt P09958); experiment: Furin cleavage of wild-type and RARR-AAAA (A4) Erfe mutant, Coomassie staining; assay type: biochemical; conditions: RARR site mutated to AAAA vs wild-type
From the text: FIG. 7. Mutation of the RARR furin cleavage site at the N-terminal of Erfe prevents cleavage by furin. (FIG. 7A) Diagrammatic structure of full length human erythroferrone and potential subunits generated after furin cleavage. (FIG. 7B) Coomassie blue staining of wild-type and an RARR-AAAA(A4) Erfe mutant, in the presence or absence of furin protease.
Sequence analysis of human erythroferrone using the ProP software predicted two furin cleavage sites: RARR at position 42 and RLRR at position 212 (FIG. 7A). The RLRR site is conserved in the mouse ortholog (position 198).

[1] = test system: ERFE suppression of hepcidin production; experiment: NanoLuc assay: anti-ERFE antibody with monoFC-huErfe and BMP6; assay type: cell-based; conditions: tripling dilutions from 500 nM, BMP6 625 pM, monoFC-huErfe 20 nM
Description: The was measured in-vitro using as follows: A hepcidin transcriptional fusion reporter assay (nano-luc or nano-luciferase assay) was developed to assess the effect of BMPs on hepcidin production in-vitro. A nanoluciferase reporter was inserted at the end of the coding sequence of the endogenous HAMP gene, in HepG2 hepatoma cells, creating a HAMP-nanoluciferase fusion. CRISPR-Cas9 was used to edit the cells with this knock-in reporter construct. A bovine Growth Hormone poly A was included after the nanoLuc to ensure proper mRNA processing. A Puromycin-TK expression cassette was also included 3′ of the nanoluc reporter to enrich for properly targeted clones. Clones that were homozygous for the HAMP-NanoLuc fusion were selected and tested for their response to BMPs and LDN(4-[6-[4-(1-Piperazinyl)phenyl]pyrazolo[1,5-a]pyrimidin-3-yl]quinoline dihydrochloride), a potent ALK2/3 BMP inhibitor, a schematic of the nano-luc construct is shown in FIG. 1B. The effect of representative BMPs (BMP, 2, 6, 9) on the Hamp-nanoLuc signal was assessed. Approximately 20,000 cells (cells split with trypsin/EDTA) were suspended in 200 uL of complete media (DMEM+10% serum+Na pyruvate) and were distributed into each well of 96-well plates and incubated for 24 hours at 37 C. […] Plates were read on Envision with Lum700 program following the manufacturer's instructions. […]

murine ERFE = molecular target: T1, murine ERFE (Mus musculus, UniProt Q6PGN1); experiment: HAMP and ID1 qRT-PCR in HUH7 cells with BMP 5, 6 or 7, murine ERFE and anti-ERFE antibody 15.1; assay type: cell-based; conditions: BMP 5, 6 or 7 2 nM, murine ERFE 1 μg/ml, antibody 10 μg/ml, 6 h
T1 sequence (Q6PGN1 25-340): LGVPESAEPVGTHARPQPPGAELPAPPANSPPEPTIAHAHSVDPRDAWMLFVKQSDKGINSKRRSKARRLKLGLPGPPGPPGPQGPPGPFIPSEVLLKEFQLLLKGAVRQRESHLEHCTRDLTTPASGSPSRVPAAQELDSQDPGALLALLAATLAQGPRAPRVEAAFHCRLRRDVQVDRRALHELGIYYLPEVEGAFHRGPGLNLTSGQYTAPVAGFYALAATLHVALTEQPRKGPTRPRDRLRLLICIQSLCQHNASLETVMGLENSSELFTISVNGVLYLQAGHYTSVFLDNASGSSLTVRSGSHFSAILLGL
Description: HUH7 cells treated with BMP 5, 6 or 7 (2 nM), murine ERFE (1 μg/ml) and anti-ERFE antibody 15.1 (10 μg/ml), alone or in combination, for 6 h. HAMP and ID1 gene expression was measured by qRT-PCR and expressed as fold-change relative to untreated cells, FIGS. 11A and 11B.

furin, sequence (P09958 108-794, species assumed): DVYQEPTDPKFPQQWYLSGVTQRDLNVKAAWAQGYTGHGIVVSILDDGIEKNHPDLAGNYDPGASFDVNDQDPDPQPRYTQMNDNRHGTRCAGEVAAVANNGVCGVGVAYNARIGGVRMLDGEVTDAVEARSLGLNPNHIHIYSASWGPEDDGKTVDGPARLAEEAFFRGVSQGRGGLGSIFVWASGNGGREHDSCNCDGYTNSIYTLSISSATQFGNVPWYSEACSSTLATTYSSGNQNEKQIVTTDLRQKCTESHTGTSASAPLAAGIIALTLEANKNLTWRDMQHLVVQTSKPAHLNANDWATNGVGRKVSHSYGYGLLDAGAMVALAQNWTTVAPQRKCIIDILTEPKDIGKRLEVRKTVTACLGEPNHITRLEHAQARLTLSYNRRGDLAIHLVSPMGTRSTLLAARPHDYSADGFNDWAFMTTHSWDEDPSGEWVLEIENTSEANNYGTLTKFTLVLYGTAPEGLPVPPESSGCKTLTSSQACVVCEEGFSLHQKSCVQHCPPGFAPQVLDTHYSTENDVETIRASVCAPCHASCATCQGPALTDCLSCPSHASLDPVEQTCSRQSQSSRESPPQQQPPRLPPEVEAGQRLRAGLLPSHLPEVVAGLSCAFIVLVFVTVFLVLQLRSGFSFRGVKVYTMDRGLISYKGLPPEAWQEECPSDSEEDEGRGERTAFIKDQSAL

B1: monoFC-huErfe A4: human erythroferrone mono-Fc construct with RARR furin cleavage site mutated to AAAA (protein)
chain: AAGLGSPEPGAPSRSAAAAEPPPGNELPRGPGESRAGPAARPPEPTAERAHSVDPRDAWMLFVRQSDKGVNGKKRSRGKAKKLKFGLPGPPGPPGPQGPPGPIIPPEALLKEFQLLLKGAVRQRERAEPEPCTCGPAGPVAASLAPVSATAGEDDDDVVGDVLALLAAPLAPGPRAPRVEAAFLCRLRRDALVERRALHELGVYYLPDAEGAFRRGPGLNLTSGQYRAPVAGFYALAATLHVALGEPPRRGPPRPRDHLRLLICIQSRCQRNASLEAIMGLESSSELFTISVNGVLYLQMGQWTSVFLDNASGCSLTVRSGSHFSAVLLGV
hepcidin expression (Huh7 cells): effectively suppress | clipping of human erythroferrone after treatment with furin (furin): reduced the clipping

B2: Ab 15.1: neutralising anti-ERFE antibody; heavy and light chain SEQ ID NO: 26 and 27 (antibody)
heavy: EVQLQQSGPELVKPGASVKMSCKASGYTFTDYSMHWVKQSHGKSLEWIGYINPNSGGTSYNQKFKGKATLTVNKSSSTAYMELRSLTSEDSAVYYCVPYGYDDYWGQGTTLTVSSAKTTAPSVYPLAPVCGDTTGSSVTLGCLVKGYFPEPVTLTWNSGSLSSGVHTFPAVLQSDLYTLSSSVTVTSSTWPSQSITCNVAHPASSTKVDKKIEPRGPTIKPCPPCKCPAPNLEGGPSVFIFPPKIKDVLMISLSPIVTCVVVDVSEDDPDVQISWFVNNVEVHTAQTQTHREDYNSTLRVVSALPIQHQDWMSGKAFACAVNNKDLPAPIERTISKPKGSVRAPQVYVLPPPEEEMTKKQVTLTCMVTDFMPEDIYVEWTNNGKTELNYKNTEPVLDSDGSYFMYSKLRVEKKNWVERNSYSCSVVHEGLHNHHTTKSFSRTPG
light: DVLMTQTPLSLPVSLGDQVSISCRSSQSIVHSNGNTYLEWYLQKPGQSPKLLIYKVSNRFSGVPDRFSGSGSGTDFTLRITRVAAEDLGVYYCFQGSHVPLTFGAGTKLELKRTDAAPTVSIFPPSSEQLTSGGASVVCFLNNFYPKDINVKWKIDGSERQNGVLNSWTDQDSKDSTYSMSSTLTLTKDEYERHNSYTCEATHKTSTSPIVKSFNRNEC
inhibition of ERFE suppression of hepcidin production [1]: inhibit ERFE suppression of hepcidin production in a dose-dependent manner | block of ERFE activity on BMPs (HAMP and ID1 expression) (murine ERFE): prevent BMP inhibition
